Measured values published in IntAct's records for PubMed 36931259.

B1: 14-3-3 protein sigma (Homo sapiens), P31947 (parent)
chain: MERASLIQKAKLAEQAERYEDMAAFMKGAVEKGEELSCEERNLLSVAYKNVVGGQRAAWRVLSSIEQKSNEEGSEEKGPEVREYREKVETELQGVCDTVLGLLDSHLIKEAGDAESRVFYLKMKGDYYRYLAEVATGDDKKRIIDSARSAYQEAMDISKKEMPPTNPIRLGLALNFSVFHYEIANSPEEAISLAKTTFDEAMADLHTLSEDSYKDSTLIMQLLRDNLTLWTADNAGEEGGEAPQEPQS

Variants of: B1
Conditions: with MAP3K14, Q99558

Row | Variant | effect of a mutation on the interaction
1 | MERASLIQKAKLAEQAERYEDMAAFMKGAVEKGEELSCEERNLLSVAYENVVGGQEAAWRVLSSIEQKSNEEGSEEKGPEVREYREKVETELQGVCDTVLGLLDSHLIKEAGDAESRVFYLKMKGDYYRYLAEVATGDDKKRIIDSARSAYQEAMDISKKEMPPTNPIRLGLALNFSDFHYEIANSPEEAISLAKTTFDEAMADLHTLSEDSYKDSTLIMQLLRDNLTLWTADNAGEEGGEAPQEPQS [K49E;R56E;V178D] | decreasing interaction strength

Variants of: B1
Conditions: with limk2_human LIMK2, P53671
Chain of limk2_human LIMK2, P53671 (P53671 whole entry, looked up): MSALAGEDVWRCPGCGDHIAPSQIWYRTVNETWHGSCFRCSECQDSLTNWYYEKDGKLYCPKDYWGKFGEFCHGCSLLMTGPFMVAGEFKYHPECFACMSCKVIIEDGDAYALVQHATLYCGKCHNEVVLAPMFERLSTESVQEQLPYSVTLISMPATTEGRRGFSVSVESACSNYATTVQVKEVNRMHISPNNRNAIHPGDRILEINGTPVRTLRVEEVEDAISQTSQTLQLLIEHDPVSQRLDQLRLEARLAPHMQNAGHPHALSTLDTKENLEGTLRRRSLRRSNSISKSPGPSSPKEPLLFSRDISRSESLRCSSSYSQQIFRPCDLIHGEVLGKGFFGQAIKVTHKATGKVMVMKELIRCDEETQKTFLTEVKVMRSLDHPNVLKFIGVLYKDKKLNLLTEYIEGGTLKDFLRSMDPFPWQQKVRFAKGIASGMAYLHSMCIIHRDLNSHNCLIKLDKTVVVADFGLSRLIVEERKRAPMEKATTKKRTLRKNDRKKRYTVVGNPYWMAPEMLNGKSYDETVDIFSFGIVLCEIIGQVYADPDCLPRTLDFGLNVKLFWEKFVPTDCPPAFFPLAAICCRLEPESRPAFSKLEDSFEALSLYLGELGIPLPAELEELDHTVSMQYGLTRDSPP

Row | Variant | effect of a mutation on the interaction
2 | MERASLIQKAKLAEQAERYEDMAAFMKGAVEKGEELSCEERNLLSVAYENVVGGQEAAWRVLSSIEQKSNEEGSEEKGPEVREYREKVETELQGVCDTVLGLLDSHLIKEAGDAESRVFYLKMKGDYYRYLAEVATGDDKKRIIDSARSAYQEAMDISKKEMPPTNPIRLGLALNFSDFHYEIANSPEEAISLAKTTFDEAMADLHTLSEDSYKDSTLIMQLLRDNLTLWTADNAGEEGGEAPQEPQS [K49E;R56E;V178D] | decreasing interaction strength

Variants of: B1
Conditions: with m3k9_human MAP3K9, P80192

Row | Variant | effect of a mutation on the interaction
3 | MERASLIQKAKLAEQAERYEDMAAFMKGAVEKGEELSCEERNLLSVAYENVVGGQEAAWRVLSSIEQKSNEEGSEEKGPEVREYREKVETELQGVCDTVLGLLDSHLIKEAGDAESRVFYLKMKGDYYRYLAEVATGDDKKRIIDSARSAYQEAMDISKKEMPPTNPIRLGLALNFSDFHYEIANSPEEAISLAKTTFDEAMADLHTLSEDSYKDSTLIMQLLRDNLTLWTADNAGEEGGEAPQEPQS [K49E;R56E;V178D] | decreasing interaction strength

Variants of: B1
Conditions: with tesk2_human TESK2, Q96S53
Chain of tesk2_human TESK2, Q96S53 (Q96S53 whole entry, looked up): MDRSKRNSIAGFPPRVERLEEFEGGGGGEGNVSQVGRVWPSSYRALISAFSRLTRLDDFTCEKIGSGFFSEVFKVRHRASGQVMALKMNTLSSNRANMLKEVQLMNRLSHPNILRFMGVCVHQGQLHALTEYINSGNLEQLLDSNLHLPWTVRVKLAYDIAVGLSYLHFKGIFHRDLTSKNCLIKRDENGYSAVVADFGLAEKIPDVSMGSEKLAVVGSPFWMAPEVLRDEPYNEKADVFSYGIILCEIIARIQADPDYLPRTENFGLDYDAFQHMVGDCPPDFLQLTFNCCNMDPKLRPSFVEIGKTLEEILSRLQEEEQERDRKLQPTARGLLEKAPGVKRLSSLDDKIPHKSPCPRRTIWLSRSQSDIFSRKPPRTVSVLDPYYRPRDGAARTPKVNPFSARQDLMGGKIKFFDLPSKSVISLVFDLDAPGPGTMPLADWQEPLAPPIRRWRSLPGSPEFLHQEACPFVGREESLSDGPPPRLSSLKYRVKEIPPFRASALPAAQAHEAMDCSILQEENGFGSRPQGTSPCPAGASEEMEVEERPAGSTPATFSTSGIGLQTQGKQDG

Row | Variant | effect of a mutation on the interaction
4 | MERASLIQKAKLAEQAERYEDMAAFMKGAVEKGEELSCEERNLLSVAYENVVGGQEAAWRVLSSIEQKSNEEGSEEKGPEVREYREKVETELQGVCDTVLGLLDSHLIKEAGDAESRVFYLKMKGDYYRYLAEVATGDDKKRIIDSARSAYQEAMDISKKEMPPTNPIRLGLALNFSDFHYEIANSPEEAISLAKTTFDEAMADLHTLSEDSYKDSTLIMQLLRDNLTLWTADNAGEEGGEAPQEPQS [K49E;R56E;V178D] | decreasing interaction strength

Variants of: B1
Conditions: with mk04_human MAPK4, P31152
Chain of mk04_human MAPK4, P31152 (P31152 whole entry): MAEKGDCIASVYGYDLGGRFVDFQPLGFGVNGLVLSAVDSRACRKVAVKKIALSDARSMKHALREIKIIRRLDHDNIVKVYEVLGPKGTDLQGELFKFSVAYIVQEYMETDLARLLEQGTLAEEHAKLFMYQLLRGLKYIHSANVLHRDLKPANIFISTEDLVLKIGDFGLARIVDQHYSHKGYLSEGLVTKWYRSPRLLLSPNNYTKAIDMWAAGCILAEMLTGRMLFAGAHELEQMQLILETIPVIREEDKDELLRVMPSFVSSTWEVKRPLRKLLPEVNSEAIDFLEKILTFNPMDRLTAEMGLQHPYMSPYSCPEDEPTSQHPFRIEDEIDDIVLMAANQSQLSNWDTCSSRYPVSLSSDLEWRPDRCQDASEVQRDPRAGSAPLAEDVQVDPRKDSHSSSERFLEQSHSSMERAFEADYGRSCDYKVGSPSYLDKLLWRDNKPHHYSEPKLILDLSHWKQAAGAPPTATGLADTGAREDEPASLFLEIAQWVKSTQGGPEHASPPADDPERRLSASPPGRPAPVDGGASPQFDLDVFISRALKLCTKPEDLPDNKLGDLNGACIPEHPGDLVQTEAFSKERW

Row | Variant | effect of a mutation on the interaction
5 | MERASLIQKAKLAEQAERYEDMAAFMKGAVEKGEELSCEERNLLSVAYENVVGGQEAAWRVLSSIEQKSNEEGSEEKGPEVREYREKVETELQGVCDTVLGLLDSHLIKEAGDAESRVFYLKMKGDYYRYLAEVATGDDKKRIIDSARSAYQEAMDISKKEMPPTNPIRLGLALNFSDFHYEIANSPEEAISLAKTTFDEAMADLHTLSEDSYKDSTLIMQLLRDNLTLWTADNAGEEGGEAPQEPQS [K49E;R56E;V178D] | decreasing interaction strength

Variants of: B1
Conditions: with wnk1_human WNK1, Q9H4A3

Row | Variant | effect of a mutation on the interaction
6 | MERASLIQKAKLAEQAERYEDMAAFMKGAVEKGEELSCEERNLLSVAYENVVGGQEAAWRVLSSIEQKSNEEGSEEKGPEVREYREKVETELQGVCDTVLGLLDSHLIKEAGDAESRVFYLKMKGDYYRYLAEVATGDDKKRIIDSARSAYQEAMDISKKEMPPTNPIRLGLALNFSDFHYEIANSPEEAISLAKTTFDEAMADLHTLSEDSYKDSTLIMQLLRDNLTLWTADNAGEEGGEAPQEPQS [K49E;R56E;V178D] | decreasing interaction strength

Variants of: B1
Conditions: with abl1_human ABL1, P00519

Row | Variant | effect of a mutation on the interaction
7 | MERASLIQKAKLAEQAERYEDMAAFMKGAVEKGEELSCEERNLLSVAYENVVGGQEAAWRVLSSIEQKSNEEGSEEKGPEVREYREKVETELQGVCDTVLGLLDSHLIKEAGDAESRVFYLKMKGDYYRYLAEVATGDDKKRIIDSARSAYQEAMDISKKEMPPTNPIRLGLALNFSDFHYEIANSPEEAISLAKTTFDEAMADLHTLSEDSYKDSTLIMQLLRDNLTLWTADNAGEEGGEAPQEPQS [K49E;R56E;V178D] | decreasing interaction strength

Variants of: B1
Conditions: with mast2_human MAST2, Q6P0Q8
Chain of mast2_human MAST2, Q6P0Q8 (Q6P0Q8 whole entry): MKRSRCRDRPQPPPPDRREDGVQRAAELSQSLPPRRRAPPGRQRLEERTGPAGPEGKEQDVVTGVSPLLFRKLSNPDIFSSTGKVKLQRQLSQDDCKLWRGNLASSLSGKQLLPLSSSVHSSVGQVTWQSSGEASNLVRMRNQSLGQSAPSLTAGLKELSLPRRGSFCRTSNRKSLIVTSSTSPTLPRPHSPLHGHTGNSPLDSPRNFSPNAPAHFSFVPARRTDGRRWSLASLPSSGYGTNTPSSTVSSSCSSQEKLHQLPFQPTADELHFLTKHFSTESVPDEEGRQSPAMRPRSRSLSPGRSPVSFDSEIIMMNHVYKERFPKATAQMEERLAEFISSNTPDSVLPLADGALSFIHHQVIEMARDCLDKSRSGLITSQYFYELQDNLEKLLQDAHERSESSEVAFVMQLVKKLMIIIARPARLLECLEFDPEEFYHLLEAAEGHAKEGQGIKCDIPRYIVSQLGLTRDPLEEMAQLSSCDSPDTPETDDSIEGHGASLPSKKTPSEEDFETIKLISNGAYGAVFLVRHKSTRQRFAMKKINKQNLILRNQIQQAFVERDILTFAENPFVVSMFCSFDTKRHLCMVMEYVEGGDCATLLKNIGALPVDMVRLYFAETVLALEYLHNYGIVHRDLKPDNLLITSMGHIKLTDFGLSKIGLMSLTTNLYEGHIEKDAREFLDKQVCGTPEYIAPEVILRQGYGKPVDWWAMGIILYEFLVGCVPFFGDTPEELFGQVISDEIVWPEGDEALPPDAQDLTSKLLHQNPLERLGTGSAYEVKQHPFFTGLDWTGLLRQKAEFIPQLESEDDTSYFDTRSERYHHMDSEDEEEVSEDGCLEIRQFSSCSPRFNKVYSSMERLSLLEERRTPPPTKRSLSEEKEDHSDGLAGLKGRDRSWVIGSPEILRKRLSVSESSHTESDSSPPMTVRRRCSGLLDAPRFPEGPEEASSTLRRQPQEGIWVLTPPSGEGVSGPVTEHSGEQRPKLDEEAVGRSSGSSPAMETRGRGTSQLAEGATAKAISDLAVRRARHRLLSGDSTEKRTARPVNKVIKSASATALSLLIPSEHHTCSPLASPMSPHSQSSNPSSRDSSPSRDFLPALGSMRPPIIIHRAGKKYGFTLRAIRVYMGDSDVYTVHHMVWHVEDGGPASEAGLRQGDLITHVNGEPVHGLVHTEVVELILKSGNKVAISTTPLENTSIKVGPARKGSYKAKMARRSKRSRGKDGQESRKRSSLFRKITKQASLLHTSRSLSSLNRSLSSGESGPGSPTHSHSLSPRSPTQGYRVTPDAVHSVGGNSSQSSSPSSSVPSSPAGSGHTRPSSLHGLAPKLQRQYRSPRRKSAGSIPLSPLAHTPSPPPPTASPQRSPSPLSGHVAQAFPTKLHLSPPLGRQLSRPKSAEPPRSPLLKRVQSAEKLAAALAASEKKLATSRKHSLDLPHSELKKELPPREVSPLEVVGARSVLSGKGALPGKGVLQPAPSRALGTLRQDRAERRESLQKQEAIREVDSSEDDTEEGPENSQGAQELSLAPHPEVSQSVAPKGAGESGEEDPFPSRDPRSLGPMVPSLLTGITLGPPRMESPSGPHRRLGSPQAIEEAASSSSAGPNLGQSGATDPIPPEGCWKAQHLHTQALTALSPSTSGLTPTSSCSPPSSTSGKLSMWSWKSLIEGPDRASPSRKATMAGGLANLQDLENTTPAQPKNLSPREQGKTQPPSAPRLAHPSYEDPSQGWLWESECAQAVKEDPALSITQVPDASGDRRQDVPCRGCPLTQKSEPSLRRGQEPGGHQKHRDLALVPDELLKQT

Row | Variant | effect of a mutation on the interaction
8 | MERASLIQKAKLAEQAERYEDMAAFMKGAVEKGEELSCEERNLLSVAYENVVGGQEAAWRVLSSIEQKSNEEGSEEKGPEVREYREKVETELQGVCDTVLGLLDSHLIKEAGDAESRVFYLKMKGDYYRYLAEVATGDDKKRIIDSARSAYQEAMDISKKEMPPTNPIRLGLALNFSDFHYEIANSPEEAISLAKTTFDEAMADLHTLSEDSYKDSTLIMQLLRDNLTLWTADNAGEEGGEAPQEPQS [K49E;R56E;V178D] | decreasing interaction strength

Variants of: B1
Conditions: with dyr1b_human DYRK1B

Row | Variant | effect of a mutation on the interaction
9 | MERASLIQKAKLAEQAERYEDMAAFMKGAVEKGEELSCEERNLLSVAYENVVGGQEAAWRVLSSIEQKSNEEGSEEKGPEVREYREKVETELQGVCDTVLGLLDSHLIKEAGDAESRVFYLKMKGDYYRYLAEVATGDDKKRIIDSARSAYQEAMDISKKEMPPTNPIRLGLALNFSDFHYEIANSPEEAISLAKTTFDEAMADLHTLSEDSYKDSTLIMQLLRDNLTLWTADNAGEEGGEAPQEPQS [K49E;R56E;V178D] | decreasing interaction strength

Variants of: B1
Conditions: with wnk4_human WNK4, Q96J92

Row | Variant | effect of a mutation on the interaction
10 | MERASLIQKAKLAEQAERYEDMAAFMKGAVEKGEELSCEERNLLSVAYENVVGGQEAAWRVLSSIEQKSNEEGSEEKGPEVREYREKVETELQGVCDTVLGLLDSHLIKEAGDAESRVFYLKMKGDYYRYLAEVATGDDKKRIIDSARSAYQEAMDISKKEMPPTNPIRLGLALNFSDFHYEIANSPEEAISLAKTTFDEAMADLHTLSEDSYKDSTLIMQLLRDNLTLWTADNAGEEGGEAPQEPQS [K49E;R56E;V178D] | decreasing interaction strength

Variants of: B1
Conditions: with clk3_human CLK3, P49761
Chain of clk3_human CLK3, P49761 (P49761 whole entry, looked up): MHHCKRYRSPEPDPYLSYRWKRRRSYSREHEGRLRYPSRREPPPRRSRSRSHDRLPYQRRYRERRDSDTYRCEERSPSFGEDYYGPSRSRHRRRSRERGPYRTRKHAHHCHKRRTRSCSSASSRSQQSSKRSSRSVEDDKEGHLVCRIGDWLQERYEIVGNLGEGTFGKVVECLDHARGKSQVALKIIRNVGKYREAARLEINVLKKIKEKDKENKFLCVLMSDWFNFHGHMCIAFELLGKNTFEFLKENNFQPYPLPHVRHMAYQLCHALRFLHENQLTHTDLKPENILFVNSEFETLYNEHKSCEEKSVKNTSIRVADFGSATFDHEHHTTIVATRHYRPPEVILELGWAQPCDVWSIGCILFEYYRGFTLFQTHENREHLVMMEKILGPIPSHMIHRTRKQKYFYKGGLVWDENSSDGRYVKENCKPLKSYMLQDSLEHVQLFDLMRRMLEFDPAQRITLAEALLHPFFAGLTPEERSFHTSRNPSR

Row | Variant | effect of a mutation on the interaction
11 | MERASLIQKAKLAEQAERYEDMAAFMKGAVEKGEELSCEERNLLSVAYENVVGGQEAAWRVLSSIEQKSNEEGSEEKGPEVREYREKVETELQGVCDTVLGLLDSHLIKEAGDAESRVFYLKMKGDYYRYLAEVATGDDKKRIIDSARSAYQEAMDISKKEMPPTNPIRLGLALNFSDFHYEIANSPEEAISLAKTTFDEAMADLHTLSEDSYKDSTLIMQLLRDNLTLWTADNAGEEGGEAPQEPQS [K49E;R56E;V178D] | decreasing interaction strength

Variants of: B1
Conditions: with cdk18_human CDK18, Q07002
Chain of cdk18_human CDK18, Q07002 (Q07002 whole entry): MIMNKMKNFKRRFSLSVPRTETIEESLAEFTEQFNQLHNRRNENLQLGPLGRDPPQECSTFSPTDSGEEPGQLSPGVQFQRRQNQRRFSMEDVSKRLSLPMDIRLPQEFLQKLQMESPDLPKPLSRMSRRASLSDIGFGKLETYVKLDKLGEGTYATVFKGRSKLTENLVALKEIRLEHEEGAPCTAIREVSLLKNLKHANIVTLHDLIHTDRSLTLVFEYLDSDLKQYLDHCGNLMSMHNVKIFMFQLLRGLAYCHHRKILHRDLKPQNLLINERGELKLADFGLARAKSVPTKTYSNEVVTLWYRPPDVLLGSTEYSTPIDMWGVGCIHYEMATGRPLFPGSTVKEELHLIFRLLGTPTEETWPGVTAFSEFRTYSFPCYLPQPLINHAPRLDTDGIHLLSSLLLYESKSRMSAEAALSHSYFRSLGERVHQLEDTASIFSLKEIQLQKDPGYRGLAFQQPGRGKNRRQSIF

Row | Variant | effect of a mutation on the interaction
12 | MERASLIQKAKLAEQAERYEDMAAFMKGAVEKGEELSCEERNLLSVAYENVVGGQEAAWRVLSSIEQKSNEEGSEEKGPEVREYREKVETELQGVCDTVLGLLDSHLIKEAGDAESRVFYLKMKGDYYRYLAEVATGDDKKRIIDSARSAYQEAMDISKKEMPPTNPIRLGLALNFSDFHYEIANSPEEAISLAKTTFDEAMADLHTLSEDSYKDSTLIMQLLRDNLTLWTADNAGEEGGEAPQEPQS [K49E;R56E;V178D] | decreasing interaction strength

Variants of: B1
Conditions: with lck_human LCK

Row | Variant | effect of a mutation on the interaction
13 | MERASLIQKAKLAEQAERYEDMAAFMKGAVEKGEELSCEERNLLSVAYENVVGGQEAAWRVLSSIEQKSNEEGSEEKGPEVREYREKVETELQGVCDTVLGLLDSHLIKEAGDAESRVFYLKMKGDYYRYLAEVATGDDKKRIIDSARSAYQEAMDISKKEMPPTNPIRLGLALNFSDFHYEIANSPEEAISLAKTTFDEAMADLHTLSEDSYKDSTLIMQLLRDNLTLWTADNAGEEGGEAPQEPQS [K49E;R56E;V178D] | decreasing interaction strength

Variants of: B1
Conditions: with ntrk3_human NTRK3, Q16288

Row | Variant | effect of a mutation on the interaction
14 | MERASLIQKAKLAEQAERYEDMAAFMKGAVEKGEELSCEERNLLSVAYENVVGGQEAAWRVLSSIEQKSNEEGSEEKGPEVREYREKVETELQGVCDTVLGLLDSHLIKEAGDAESRVFYLKMKGDYYRYLAEVATGDDKKRIIDSARSAYQEAMDISKKEMPPTNPIRLGLALNFSDFHYEIANSPEEAISLAKTTFDEAMADLHTLSEDSYKDSTLIMQLLRDNLTLWTADNAGEEGGEAPQEPQS [K49E;R56E;V178D] | decreasing interaction strength

Variants of: B1
Conditions: with mp2k7_human MAP2K7, O14733
Chain of mp2k7_human MAP2K7, O14733 (O14733 whole entry): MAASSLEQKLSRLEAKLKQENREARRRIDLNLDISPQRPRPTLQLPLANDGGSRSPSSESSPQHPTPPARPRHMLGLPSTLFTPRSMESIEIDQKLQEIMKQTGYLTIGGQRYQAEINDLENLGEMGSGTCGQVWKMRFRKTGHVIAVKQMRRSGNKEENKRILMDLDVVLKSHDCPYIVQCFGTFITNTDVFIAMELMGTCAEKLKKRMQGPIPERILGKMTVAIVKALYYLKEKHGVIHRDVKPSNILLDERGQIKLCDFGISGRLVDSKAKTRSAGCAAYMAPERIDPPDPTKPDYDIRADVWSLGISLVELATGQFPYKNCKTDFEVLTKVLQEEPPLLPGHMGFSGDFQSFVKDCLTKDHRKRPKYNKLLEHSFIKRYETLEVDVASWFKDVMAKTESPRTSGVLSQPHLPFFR

Row | Variant | effect of a mutation on the interaction
15 | MERASLIQKAKLAEQAERYEDMAAFMKGAVEKGEELSCEERNLLSVAYENVVGGQEAAWRVLSSIEQKSNEEGSEEKGPEVREYREKVETELQGVCDTVLGLLDSHLIKEAGDAESRVFYLKMKGDYYRYLAEVATGDDKKRIIDSARSAYQEAMDISKKEMPPTNPIRLGLALNFSDFHYEIANSPEEAISLAKTTFDEAMADLHTLSEDSYKDSTLIMQLLRDNLTLWTADNAGEEGGEAPQEPQS [K49E;R56E;V178D] | decreasing interaction strength
